Laboratory results: article PMC3564036

Substrate: Nc1ncnc2c1ncn2[C@@H]1O[C@H](COP(=O)(O)OP(=O)(O)O)[C@@H](O)[C@H]1O
Test: purified protein
Assay type: biochemical, Homo sapiens
Settings: Mg2+

B1: PPIP5K2 (Homo sapiens) (protein)
chain: MSEAPRFFVGPEDTEINPGNYRHFFHHADEDDEEEDDSPPERQIVVGICSMAKKSKSKPMKEILERISLFKYITVVVFEEEVILNEPVENWPLCDCLISFHSKGFPLDKAVAYAKLRNPFVINDLNMQYLIQDRREVYSILQAEGILLPRYAILNRDPNNPKECNLIEGEDHVEVNGEVFQKPFVEKPVSAEDHNVYIYYPTSAGGGSQRLFRKIGSRSSVYSPESNVRKTGSYIYEEFMPTDGTDVKVYTVGPDYAHAEARKSPALDGKVERDSEGKEVRYPVILNAREKLIAWKVCLAFKQTVCGFDLLRANGQSYVCDVNGFSFVKNSMKYYDDCAKILGNIVMRELAPQFHIPWSIPLEAED
  Km: 5.2 ± 1.5 µM
  kcat: 0.002 s⁻¹
  kcat/Km: 370 M⁻¹ s⁻¹
